The target of this assay is T1, VP2 from Rotavirus A WA strain (Rotavirus A WA strain, UniProt P11231 1-890).
T1 construct: Expressed in N. benthamiana from construct 1710 and purified as part of rotavirus-like particles; also called RVA(WA) VP2; VP2(opt)
T1 sequence: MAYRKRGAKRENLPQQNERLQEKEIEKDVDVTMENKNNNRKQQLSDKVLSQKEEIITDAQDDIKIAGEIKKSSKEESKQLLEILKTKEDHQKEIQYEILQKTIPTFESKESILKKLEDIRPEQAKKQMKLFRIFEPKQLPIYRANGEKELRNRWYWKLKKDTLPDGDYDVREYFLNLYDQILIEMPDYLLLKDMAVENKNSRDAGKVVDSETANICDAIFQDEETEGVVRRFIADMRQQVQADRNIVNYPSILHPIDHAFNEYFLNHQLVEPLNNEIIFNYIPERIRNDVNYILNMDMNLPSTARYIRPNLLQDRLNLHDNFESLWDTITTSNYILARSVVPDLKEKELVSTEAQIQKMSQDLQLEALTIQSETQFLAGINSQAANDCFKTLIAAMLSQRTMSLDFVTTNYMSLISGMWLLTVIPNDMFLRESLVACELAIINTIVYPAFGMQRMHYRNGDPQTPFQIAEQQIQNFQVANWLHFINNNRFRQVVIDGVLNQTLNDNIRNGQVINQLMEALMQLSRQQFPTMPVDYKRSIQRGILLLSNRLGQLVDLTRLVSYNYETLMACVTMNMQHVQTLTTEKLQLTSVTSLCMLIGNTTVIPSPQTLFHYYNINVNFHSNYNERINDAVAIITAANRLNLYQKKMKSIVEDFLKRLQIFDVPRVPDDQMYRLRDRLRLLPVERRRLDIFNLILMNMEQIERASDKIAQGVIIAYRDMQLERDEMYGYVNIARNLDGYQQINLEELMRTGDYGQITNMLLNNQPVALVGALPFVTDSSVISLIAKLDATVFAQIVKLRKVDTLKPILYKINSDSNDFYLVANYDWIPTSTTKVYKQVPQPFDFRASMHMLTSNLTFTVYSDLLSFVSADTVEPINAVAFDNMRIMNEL
Put plainly: co-expression in N. benthamiana, iodixanol gradient, cryo-electron microscopy.

The results in this text go back to US20150216961A1 (MEDICAGO, published 2015).

B1: VP6 from Rotavirus A WA strain (other)
chain: MEVLYSLSKTLKDARDKIVEGTLYSNVSDLIQQFNQMIVTMNGNDFQTGGIGNLPVRNWTFDFGLLGTTLLNLDANYVENARTIIEYFIDFIDNVCMDEMARESQRNGVAPQSEALRKLAGIKFKRINFDNSSEYIENWNLQNRRQRTGFVFHKPNIFPYSASFTLNRSQPMHDNLMGTMWLNAGSEIQVAGFDYSCAINAPANIQQFEHIVQLRRALTTATITLLPDAERFSFPRVINSADGATTWFFNPVILRPNNVEVEFLLNGQIINTYQARFGTIIARNFDAIRLLFQLMRPPNMTPAVNALFPQAQPFQHHATVGLTLRIESAVCESVLADANETLLANVTAVRQEYAIPVGPVFPPGMNWTELITNYSPSREDNLQRVFTVASIRSMLIK
notes: Expressed in N. benthamiana from construct 1713 and purified as part of rotavirus-like particles; also called RVA(WA) VP6; VP6(opt)
Regarding B1, the binding result is “binds”.
